Measured values reported in the RNAGym collection of RNA variant scans (doi:10.1073/pnas.2313332121).
Fewer inactive variants are shown than the library holds.

B1: TPR 5TU (parent)
chain: GGAUCUUCUCGAUCUAACAAAAAAGACAAAUCUGCCACAAAGCUUGAGAGCAUCUUCGGAUGCAGAGGCGGCAGCCUUCGGUGGCGCGAUAGCGCCAACGUUCUCAACUAUGACACGCAAAACGCGUGCUCCGUUGAAUGGAGUUUAUCAUG

Variants of: B1
Assay: polymerase ribozyme fitness, log enrichment relative to wild type (log ratio); higher = more active; in vitro selection for triplet polymerase activity
Procedure, shortened: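 Mutant libraries were PCR-built and transcribed for each subunit of a heterodimeric triplet polymerase ribozyme and selected for one round in triplicate at −7 °C, frozen, before gel excision of extended constructs and streptavidin-bead capture. Input and output libraries were Illumina-sequenced, keeping genotypes with ≥10 input reads and ≥1 read per output. Fitness is a logarithmic ratio of genotype to wild-type enrichment, in base 2, using inverse-variance-weighted replicate averages.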

Variant | polymerase ribozyme fitness (log ratio)
A22C G34U U82A C93A | ≤ -4.2
A21U G50C G84U | -4.11
A22U C57U U78A C79U G84C G117C | ≤ -4.2
A21U C76G | ≤ -4.2
A22C A29U A41G G50C U77A C85U C93G G141C | ≤ -4.2
A22U G50C U53G G88C C93U C96U C108U | ≤ -4.2
A22C G86U C131A | ≤ -4.2
A22C G84A C99A G152U | ≤ -4.2
A22U C96U | 0.237
A21G A22U G67A G86C C96U G117A | ≤ -4.2
A21G C116G | 1.2
A21U C38A C57U U102G A119U | ≤ -4.2
A21U C38A G50C U55G C69A C76A G80A U90G | ≤ -4.2
A22U G94A | -0.557
A21C A49U C54U C85G G117A G124U | -3.06
A22U G25C G48C A122U | ≤ -4.2
A22C A52G G71A C79G C87G C99G C114G U127G C129A A142C | ≤ -4.2
A22G U53C C54U U78C G117A | -1.92
A22U C85U | -0.371
A22U C35A U55A U56G G74A C85G | ≤ -4.2
A22U C95U C103G | -1.55

Variant | polymerase ribozyme fitness (log ratio)
A22C G86C | -2.83
A21G G70A | -3.35
A22G C38U C95U A107C G128A | ≤ -4.2
A21U A28C U31G A47G C85U C116G C129A G133A | ≤ -4.2
A21U C85U | -0.171
A21C C57G | -0.649
A21U G62A | 0.138
A23C A26U U53A C85A G136U | ≤ -4.2
A21C G59A A113G | -1.92
A21U A29C A30C A39G U44A A49C U53A G68A C105U | ≤ -4.2
A22C C27G A66U U145C | ≤ -4.2
A21U A30G | -3.62
A22U C57U G70A G81C G83C G100C A106C G133C | ≤ -4.2
A22U C38A G59A C85U C95A | -0.962
A22C C131G | -3.49
A21G A52C C75G C85U A89G C96G A150G | -3.89
A21U A73G C129G | -3.49
A21G A41C U56G G65A G141U | -3.42
A22U A26C A47C C57A G62A G86A A89U A106U C108G | ≤ -4.2
A22C U56A C57U U104G U135C | -3.35
A21C G50C C63U C93G | -1.78

Variant | polymerase ribozyme fitness (log ratio)
A21C C93U A97U C116U C123U | -0.404
A21U C54U C63U G68A A73G C93G C108G U148G | ≤ -4.2
A21G C57A G81C A97G U101C U135C | -1.99
A21C C36A C95G | -3.86
A22C A39G U144C | -4.03
A22U G140A | -2.83
A22U A37U C95U U146A | -1.67
A22U U82G C93A G124U C125U | -2.61
A22U G50U C96G | 0.467
A21G G141A | 1.12
A22G G117A | 1.13
A22C U102G A110G | ≤ -4.2
A22U C27G C57G U61A C95U U104G U145G | ≤ -4.2
A21G C85A | -1.12
A21G C85U | -0.132
A23C C79A C103U A138G G143C | ≤ -4.2
A21U A52G A66C G128A | ≤ -4.2
A22U C27U G86U | -3.28
A21U G141A | 1.36
A21C C63U A73C C95A A98U | -3.29
A21G A91G A115U C116A | -3.91

Variant | polymerase ribozyme fitness (log ratio)
A22C A26G A30U U45G G74C C103G G140U | ≤ -4.2
A21G A24U U53A G94A | -0.529
A22G A24U G59C C96G A98U | 0.453
A21U A24C A26U U44G A89U A91G G128U G140C U145A | ≤ -4.2
A21C C32G A37U A49G C57U C75G G84A A107C A147U | ≤ -4.2
A23C A47G C96A | ≤ -4.2
A22C A28U G62A G65C U90A C99U C108U C116G | ≤ -4.2
A21G C36U C57A | -0.735
A22C A52G A106C C118U A142G | -3.06
A22C A52U U82C G86U A97G | -3.83
A23C G25C C27G U53A C54G A66G G80A A91G G92A C99U | ≤ -4.2
A21U C96G G143U | -3.69
A21C A49C A52C U53G G84U C95U G141A | ≤ -4.2
A21C C75G C96G C131G | -4.13
A22G C51G A91U G94U U144C | ≤ -4.2
A21U A39C G58A G94C C125G U148G | ≤ -4.2
A22U A24U U44A C93A C96U C118U | ≤ -4.2
A22C C76A G128U C129U | ≤ -4.2
A22U U56A | -0.239
A21C C93A | -2.02
A21C A26U G140C U146A | ≤ -4.2
